Experimental data: patent US20210198328A1, “MODULATED CAS-INHIBITORS” (Universität Heidelberg, priority 2017, published 2021)

How the values were obtained:
dCas9-p300 = dCas9-p300 (UniProt Q99ZW2); assay: cell-based or functional assay
[1] = biological target: dCas9-3xRFP (Streptococcus pyogenes) (UniProt Q99ZW2); assay: cell-based or functional assay

For “CASANOVA (Acr-LOV variant 4; delta N64/Q65/E66, LOV2 inserted, no GS-linkers)”, the IL1RN transcript levels by quantitative RT-PCR, light against dark (dCas9-p300) was less than 10 fold, the telomere labeling in U2OS nuclei, dark: cells labeling negative [1] was 60% and the telomere labeling in U2OS nuclei, dark: more than 15 dots in the nucleus [1] was less than 5%. It also gave a telomere labeling in U2OS nuclei, light: more than 15 dots in the nucleus [1] of 40% and a telomere labeling in U2OS nuclei, light: nuclei labeling positive [1] of 80%.
